The target in one assay is HLA-A*30:01. The assay can be described thus: IEDB peptide-MHC binding, purified MHC/competitive/fluorescence; filed as Kd, often an IC50 or EC50 that approximates it; ≥ and ≤ were set here for values at or beyond the usual limits of such assays. The note with it: source organism: Human immunodeficiency virus 1.
The target in assay [1] is HLA-A*01:01. The assay is described as above. The note with it: source organism: Human immunodeficiency virus 1.
For assay [2], the target named is HLA-B*15:17. The assay is described as above. Particulars: source organism: Human immunodeficiency virus 1.
Assay [3] addresses HLA-B*08:01. The description is as above. The note with it: source organism: Human immunodeficiency virus 1.
Assay [4] concerns the target HLA-B*15:01. Described as above.
The target in assay [5] is HLA-B*38:01. The description is as above. The note with it: source organism: Human immunodeficiency virus 1.
For assay [6], the target named is HLA-B*15:09. The description is as above.
The next assay concerns the target HLA-A*80:01. The description is as above. The note with it: source organism: Cryptosporidium parvum Iowa II.
The target in assay [7] is HLA-B*46:01. Described as above. Particulars: source organism: Cryptosporidium parvum Iowa II.
The target in assay [8] is HLA-B*57:01. The assay is described as above. The note with it: source organism: Cryptosporidium parvum Iowa II.
The next assay deals with HLA-A*29:02. The description is as above. The note with it: source organism: Cryptosporidium parvum Iowa II.
Another assay concerns the target HLA-B*39:01. The description is as above.
The target in another assay is HLA-B*27:03. The description is as above. The note with it: source organism: Cryptosporidium parvum Iowa II.
The next assay deals with HLA-B*51:01. The assay is described as above. The note with it: source organism: Cryptosporidium parvum Iowa II.
The next assay deals with HLA-B*18:01. The assay is described as above. The note with it: source organism: Cryptosporidium parvum Iowa II.
For assay [9], the target named is HLA-A*26:01. The assay is described as above. The note with it: source organism: Cryptosporidium parvum Iowa II.
For another assay, the target named is HLA-A*26:02. The description is as above. Particulars: source organism: Orthomarburgvirus marburgense.
The next assay concerns the target HLA-B*35:01. The assay is described as above. The note with it: source organism: Orthomarburgvirus marburgense.
The target of assay [10] is HLA-A*01:01. The experiment in a line: IEDB peptide-MHC binding, purified MHC/direct/fluorescence; filed as Kd, often an IC50 or EC50 that approximates it; ≥ and ≤ were set here for values at or beyond the usual limits of such assays.
A further assay has as its target HLA-A*68:02. Described as above. Particulars: source organism: Marburg virus - Musoke, Kenya, 1980.
For assay [11], the target named is HLA-B*46:01. The description is as above.
Assay [12] addresses HLA-B*57:01. The assay is described as above.
The target of a further assay is HLA-A*26:03. The description is as above. The note with it: source organism: Orthomarburgvirus marburgense.
Assay [13] has as its target HLA-A*11:01. The assay is described as above. Particulars: source organism: Marburg virus - Musoke, Kenya, 1980.
The target of the next assay is HLA-A*31:01. The assay is described as above.
A further assay addresses HLA-B*48:01. The description is as above.
The target of assay [14] is HLA-B*15:17. The description is as above.
A further assay has as its target HLA-B*07:02. The description is as above. Particulars: source organism: Marburg virus - Musoke, Kenya, 1980.
Assay [15] deals with HLA-B*08:01. Described as above.
The target in assay [16] is HLA-B*15:01. The description is as above.
The next assay has as its target HLA-B*58:01. The assay is described as above.
The next assay deals with HLA-A*02:01. The description is as above.
Another assay addresses HLA-B*27:05. The description is as above.
A further assay has as its target HLA-A*69:01. The description is as above.
In assay [17] the target is HLA-A*11:01. The experiment in a line: IEDB peptide-MHC binding, purified MHC/competitive/fluorescence; filed as Kd, often an IC50 or EC50 that approximates it; ≥ and ≤ were set here for values at or beyond the usual limits of such assays. Particulars: source organism: Rickettsia canadensis.
In the next assay the target is HLA-A*03:01. The assay can be described thus: IEDB peptide-MHC binding, purified MHC/direct/fluorescence; filed as Kd, often an IC50 or EC50 that approximates it; ≥ and ≤ were set here for values at or beyond the usual limits of such assays. The note with it: source organism: Rickettsia canadensis.
In assay [18] the target is HLA-A*26:01. Described as above. The note with it: source organism: Candidatus Rickettsia tarasevichiae.
In assay [19] the target is HLA-B*38:01. Described as above. The note with it: source organism: Candidatus Rickettsia tarasevichiae.
Another assay has as its target HLA-B*40:01. Described as above. The note with it: source organism: Rickettsia canadensis.
Assay [20] addresses HLA-B*15:09. Described as above. Particulars: source organism: Candidatus Rickettsia tarasevichiae.
The mark [21] stands for this setting: source organism: Human immunodeficiency virus 1.
The mark [22] stands for this setting: source organism: Cryptosporidium parvum Iowa II.
[23] abbreviates: source organism: Orthomarburgvirus marburgense.
Setting [24] is: source organism: Marburg virus - Musoke, Kenya, 1980.
The mark [25] stands for this setting: source organism: Rickettsia canadensis.

As a reminder, the Kd is the free concentration of one partner at which half of the binding sites on the other are occupied at equilibrium, for simple one-to-one binding.

On to GSEEIKSLF, for which the Kd in the assay with HLA-A*30:01 was not below 20 µM; with HLA-A*01:01 [1] it was not below 20 µM; with HLA-B*15:17 [2] it was 0.182 µM; in the assay with HLA-B*08:01 [3] it was not below 20 µM; with HLA-B*15:01 [4] (setting [21]), not below 20 µM; with HLA-B*38:01 [5], not below 20 µM. In the assay with HLA-B*15:09 [6] (setting [21]), the Kd was not below 20 µM.
Turning to KLGDITLFL, the Kd is 0.0156 µM with HLA-A*80:01; not below 20 µM with HLA-B*46:01 [7]; not below 20 µM with HLA-B*57:01 [8]; 0.0341 µM with HLA-A*29:02; not below 20 µM with HLA-B*39:01 (setting [22]); not below 20 µM with HLA-B*27:03. The Kd in the assay with HLA-B*51:01, with HLA-B*15:01 [4] (setting [22]), with HLA-B*18:01 and with HLA-A*26:01 [9] was not below 20 µM each time.
NQECWDSVF: the Kd was 0.384 µM with HLA-A*26:02; 0.364 µM with HLA-B*39:01 (setting [23]); 0.216 µM with HLA-B*35:01; 2.52 µM with HLA-B*15:09 [6] (setting [23]); not below 20 µM with HLA-A*01:01 [10] (setting [24]); not below 20 µM with HLA-A*68:02. Moreover, the Kd in the assay with HLA-B*46:01 [11] (setting [24]), with HLA-B*57:01 [12] (setting [24]), with HLA-A*26:03, with HLA-A*11:01 [13], in the assay with HLA-A*31:01 (setting [24]) and with HLA-B*48:01 (setting [24]) was not below 20 µM throughout. The Kd with HLA-B*15:17 [14] (setting [24]) is not below 20 µM; with HLA-B*07:02 it was not below 20 µM; in the assay with HLA-B*08:01 [15] (setting [23]) it was not below 20 µM; with HLA-B*15:01 [16] (setting [24]), 0.373 µM; with HLA-B*58:01 (setting [24]), not below 20 µM; with HLA-A*02:01 (setting [24]), not below 20 µM. Besides, the Kd in the assay with HLA-B*27:05 (setting [24]) and with HLA-A*69:01 (setting [24]) was not below 20 µM in each case.
In the case of SSEADCFTY, the equilibrium dissociation constant (Kd) in the assay with HLA-A*11:01 [17] was not below 20 µM; in the assay with HLA-A*01:01 [10] (setting [25]), 0.0553 µM; in the assay with HLA-B*46:01 [11] (setting [25]) it was not below 20 µM; in the assay with HLA-B*57:01 [12] (setting [25]), not below 20 µM; in the assay with HLA-A*31:01 (setting [25]), not below 20 µM; in the assay with HLA-B*48:01 (setting [25]) it was not below 20 µM. Further, the Kd is not below 20 µM with HLA-A*03:01; 0.0816 µM in the assay with HLA-B*15:17 [14] (setting [25]); not below 20 µM with HLA-B*08:01 [15] (source organism: Candidatus Rickettsia tarasevichiae); not below 20 µM with HLA-B*15:01 [16] (setting [25]); not below 20 µM with HLA-B*58:01 (setting [25]); not below 20 µM with HLA-A*02:01 (setting [25]). Also, the Kd with HLA-A*26:01 [18], in the assay with HLA-B*27:05 (setting [25]), in the assay with HLA-A*69:01 (setting [25]), with HLA-B*38:01 [19], with HLA-B*40:01 and in the assay with HLA-B*15:09 [20] was not below 20 µM throughout.

For the origin of these results see the Immune Epitope Database (IEDB).
